Assay results as given in patent US20220363770A1 (Amgen, published 2022).

T1: human PAC1 receptor on SH-SY5Y (CRL-2266) cells (human, UniProt P41586 24-468)
T1 sequence: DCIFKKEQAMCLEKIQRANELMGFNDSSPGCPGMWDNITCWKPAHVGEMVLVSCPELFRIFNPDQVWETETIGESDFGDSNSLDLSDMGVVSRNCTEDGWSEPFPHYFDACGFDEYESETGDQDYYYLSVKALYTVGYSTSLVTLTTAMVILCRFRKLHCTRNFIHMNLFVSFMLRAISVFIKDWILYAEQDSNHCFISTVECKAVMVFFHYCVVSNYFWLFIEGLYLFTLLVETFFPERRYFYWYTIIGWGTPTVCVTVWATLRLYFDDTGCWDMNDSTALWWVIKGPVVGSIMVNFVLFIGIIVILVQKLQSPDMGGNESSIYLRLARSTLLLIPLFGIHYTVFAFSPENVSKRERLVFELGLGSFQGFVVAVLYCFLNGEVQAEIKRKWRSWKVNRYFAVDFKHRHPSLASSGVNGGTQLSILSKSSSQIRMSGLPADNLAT

B1: iPS:571017 (5604) anti-CGRP receptor/anti-PAC1 receptor bispecific hetero-immunoglobulin (bispecific antibody, human IgG1, kappa, lambda, N297G)
light 1: QSVLTQPPSVSAAPGQKVTISCSGSYSNIGRYSVSWYQQLPGTAPKLLIYDNNKRPSGIPDRFSGSKSGTSATLGITGLQTGDEADYYCGTWDSRLSAVVFGGGTKLTVLGQPKAAPSVTLFPPSSEELQANKATLVCLISDFYPGAVTVAWKADSSPVKAGVETTTPSKQSNNKYAAKSYLSLTPEQWKSHRSYSCQVTHEGSTVEKTVAPTECS
heavy 1: QVQLVESGGGVVQPGRSLRLSCAASGFTFSSFGMHWVRQAPGKGLEWVAVISFDGSIKYSVDSVKGRFTISRDNSKNTLFLQMNSLRAEDTAVYYCARDRLNYYESSGYYHYKYYGMAVWGQGTTVTVSSASTKGPSVFPLAPSSKSTSGGTAALGCLVKDYFPEPVTVSWNSGALTSGVHTFPAVLQSSGLYSLESVVTVPSSSLGTQTYICNVNHKPSNTKVDKKVEPKSCDKTHTCPPCPAPELLGGPSVFLFPPKPKDTLYITREPEVTCVVVDVSHEDPEVKFNWYVDGVEVHNAKTKPCEEQYGSTYRCVSVLTVLHQDWLNGKEYKCKVSNKALPAPIEKTISKAKGQPREPQVYTLPPSRKEMTKNQVSLTCLVKGFYPSDIAVEWESNGQPENNYKTTPPVLKSDGSFFLYSKLTVDKSRWQQGNVFSCSVMHEALHNHYTQKSLSLSPGK
light 2: EIVLTQSPATLSLSPGERATLSCRASKSVGRSLHWYQQKPGQAPRLLIKYASQSLSGIPARFSGSGSGTDFTLTISSLEPEDFAVYYCHQSSRLPFTFGPGTKVDIKRTVAAPSVFIFPPSDEQLKSGTASVVCLLNNFYPREAKVQWKVDNALQSGNSQESVTEQDSKDSTYSLESTLTLSKADYEKHKVYACEVTHQGLSSPVTKSFNRGEC
heavy 2: not shown
B2: iPS:571033 (5608) anti-CGRP receptor/anti-PAC1 receptor bispecific hetero-immunoglobulin (bispecific antibody, human IgG1, kappa, lambda, N297G)
light 1: QSVLTQPPSVSAAPGQKVTISCSGSYSNIGRYSVSWYQQLPGTAPKLLIYDNNKRPSGIPDRFSGSKSGTSATLGITGLQTGDEADYYCGTWDSRLSAVVFGGGTKLTVLGQPKAAPSVTLFPPSSEELQANKATLVCLISDFYPGAVTVAWKADSSPVKAGVETTTPSKQSNNKYAAKSYLSLTPEQWKSHRSYSCQVTHEGSTVEKTVAPTECS
heavy 1: QVQLVESGGGVVQPGRSLRLSCAASGFTFSSFGMHWVRQAPGKGLEWVAVISFDGSIKYSVDSVKGRFTISRDNSKNTLFLQMNSLRAEDTAVYYCARDRLNYYESSGYYHYKYYGMAVWGQGTTVTVSSASTKGPSVFPLAPSSKSTSGGTAALGCLVKDYFPEPVTVSWNSGALTSGVHTFPAVLQSSGLYSLESVVTVPSSSLGTQTYICNVNHKPSNTKVDKKVEPKSCDKTHTCPPCPAPELLGGPSVFLFPPKPKDTLMISRTPEVTCVVVDVSHEDPEVKFNWYVDGVEVHNAKTKPCEEQYGSTYRCVSVLTVLHQDWLNGKEYKCKVSNKALPAPIEKTISKAKGQPREPQVYTLPPSREKMTKNQVSLTCLVKGFYPSDIAVEWESNGQPENNYKTTPPVLKSDGSFFLYSKLTVDKSRWQQGNVFSCSVMHEALHNHYTQKSLSLSPGK
light 2: EIVLTQSPATLSLSPGERATLSCRASKSVGRSLHWYQQKPGQAPRLLIKYASQSLSGIPARFSGSGSGTDFTLTISSLEPEDFAVYYCHQSSRLPFTFGPGTKVDIKRTVAAPSVFIFPPSDEQLKSGTASVVCLLNNFYPREAKVQWKVDNALQSGNSQESVTEQDSKDSTYSLESTLTLSKADYEKHKVYACEVTHQGLSSPVTKSFNRGEC
heavy 2: not shown
B3: iPS:571025 (5605) anti-CGRP receptor/anti-PAC1 receptor bispecific hetero-immunoglobulin (bispecific antibody, human IgG1, kappa, lambda, N297G)
light 1: QSVLTQPPSVSAAPGQKVTISCSGSYSNIGRYSVSWYQQLPGTAPKLLIYDNNKRPSGIPDRFSGSKSGTSATLGITGLQTGDEADYYCGTWDSRLSAVVFGGGTKLTVLGQPKAAPSVTLFPPSSEELQANKATLVCLISDFYPGAVTVAWKADSSPVKAGVETTTPSKQSNNKYAAKSYLSLTPEQWKSHRSYSCQVTHEGSTVEKTVAPTECS
heavy 1: QVQLVESGGGVVQPGRSLRLSCAASGFTFSSFGMHWVRQAPGKGLEWVAVISFDGSIKYSVDSVKGRFTISRDNSKNTLFLQMNSLRAEDTAVYYCARDRLNYYESSGYYHYKYYGMAVWGQGTTVTVSSASTKGPSVFPLAPSSKSTSGGTAALGCLVKDYFPEPVTVSWNSGALTSGVHTFPAVLQSSGLYSLESVVTVPSSSLGTQTYICNVNHKPSNTKVDKKVEPKSCDKTHTCPPCPAPELLGGPSVFLFPPKPKDTLYITREPEVTCVVVDVSHEDPEVKFNWYVDGVEVHNAKTKPCEEQYGSTYRCVSVLTVLHQDWLNGKEYKCKVSNKALPAPIEKTISKAKGQPREPQVYTLPPSRKEMTKNQVSLTCLVKGFYPSDIAVEWESNGQPENNYKTTPPVLKSDGSFFLYSKLTVDKSRWQQGNVFSCSVMHEALHNHYTQKSLSLSPGK
light 2: EIVLTQSPATLSLSPGERATLSCRASKSVGRSLHWYQQKPGQAPRLLIKYASQSLSGIPARFSGSGSGTDFTLTISSLEPEDFAVYYCHQSSRLPFTFGPGTKVDIKRTVAAPSVFIFPPSDEQLKSGTASVVCLLNNFYPREAKVQWKVDNALQSGNSQESVTEQDSKDSTYSLESTLTLSKADYEKHKVYACEVTHQGLSSPVTKSFNRGEC
heavy 2: not shown
B4: iPS:571023 (5607) anti-CGRP receptor/anti-PAC1 receptor bispecific hetero-immunoglobulin (bispecific antibody, human IgG1, kappa, lambda, N297G)
light 1: QSVLTQPPSVSAAPGQKVTISCSGSYSNIGRYSVSWYQQLPGTAPKLLIYDNNKRPSGIPDRFSGSKSGTSATLGITGLQTGDEADYYCGTWDSRLSAVVFGGGTKLTVLGQPKAAPSVTLFPPSSEELQANKATLVCLISDFYPGAVTVAWKADSSPVKAGVETTTPSKQSNNKYAAKSYLSLTPEQWKSHRSYSCQVTHEGSTVEKTVAPTECS
heavy 1: QVQLVESGGGVVQPGRSLRLSCAASGFTFSSFGMHWVRQAPGKGLEWVAVISFDGSIKYSVDSVKGRFTISRDNSKNTLFLQMNSLRAEDTAVYYCARDRLNYYESSGYYHYKYYGMAVWGQGTTVTVSSASTKGPSVFPLAPSSKSTSGGTAALGCLVKDYFPEPVTVSWNSGALTSGVHTFPAVLQSSGLYSLESVVTVPSSSLGTQTYICNVNHKPSNTKVDKKVEPKSCDKTHTCPPCPAPELLGGPSVFLFPPKPKDTLMISRTPEVTCVVVDVSHEDPEVKFNWYVDGVEVHNAKTKPCEEQYGSTYRCVSVLTVLHQDWLNGKEYKCKVSNKALPAPIEKTISKAKGQPREPQVYTLPPSRKEMTKNQVSLTCLVKGFYPSDIAVEWESNGQPENNYKTTPPVLKSDGSFFLYSKLTVDKSRWQQGNVFSCSVMHEALHNHYTQKSLSLSPGK
light 2: EIVLTQSPATLSLSPGERATLSCRASKSVGRSLHWYQQKPGQAPRLLIKYASQSLSGIPARFSGSGSGTDFTLTISSLEPEDFAVYYCHQSSRLPFTFGPGTKVDIKRTVAAPSVFIFPPSDEQLKSGTASVVCLLNNFYPREAKVQWKVDNALQSGNSQESVTEQDSKDSTYSLESTLTLSKADYEKHKVYACEVTHQGLSSPVTKSFNRGEC
heavy 2: not shown

Columns and labels:
[1] = target: T1, human PAC1 receptor on SH-SY5Y …; assay: cell-based or functional assay
[2] = target: human CGRP receptor (human CRLR / human RAMP1 heterodimer) on SK-N-MC (HTB-10) cells (human, UniProt Q16602 23-461; O60894 27-148); assay: cell-based or functional assay
Sequence of human CGRP receptor (human CRLR / human RAMP1 heterodimer) on SK-N-MC (HTB-10) cells (Q16602 23-461 limits assumed, chain 1 of 2): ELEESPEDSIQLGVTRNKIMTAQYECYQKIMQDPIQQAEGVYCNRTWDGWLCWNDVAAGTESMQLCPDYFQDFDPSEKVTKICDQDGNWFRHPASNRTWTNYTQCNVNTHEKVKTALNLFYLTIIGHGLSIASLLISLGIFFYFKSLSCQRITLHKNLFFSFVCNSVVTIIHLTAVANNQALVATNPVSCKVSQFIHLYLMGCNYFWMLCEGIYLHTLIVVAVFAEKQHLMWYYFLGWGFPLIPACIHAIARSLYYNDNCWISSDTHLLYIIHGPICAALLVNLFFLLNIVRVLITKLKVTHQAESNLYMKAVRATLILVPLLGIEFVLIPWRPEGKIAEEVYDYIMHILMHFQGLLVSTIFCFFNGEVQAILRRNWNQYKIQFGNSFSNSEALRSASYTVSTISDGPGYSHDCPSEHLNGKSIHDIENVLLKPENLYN
Sequence of human CGRP receptor (human CRLR / human RAMP1 heterodimer) on SK-N-MC (HTB-10) cells (O60894 27-148 limits assumed, chain 2 of 2): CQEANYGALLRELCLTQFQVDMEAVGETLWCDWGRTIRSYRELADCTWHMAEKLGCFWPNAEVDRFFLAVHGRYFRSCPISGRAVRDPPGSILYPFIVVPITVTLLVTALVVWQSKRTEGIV

Binder	Fold-improvement over 29G4v22 Ab (human PAC1 receptor IC50) [1]	Human PAC1 Receptor IC50 (nM), cell-based cAMP assay [1]	Fold-improvement over 4E4 Ab (human CGRP receptor IC50) [2]	Human CGRP Receptor IC50 (nM), cell-based cAMP assay [2]
B1	4.8 fold	0.86 nM	1.3 fold	0.45 nM
B2	7.2 fold	0.57 nM	1.7 fold	0.33 nM
B3	3.1 fold	1.34 nM	0.9 fold	0.6 nM
B4	4.4 fold	0.88 nM	0.9 fold	0.63 nM
